Measured values: the nanobody polyreactivity screen of Harvey et al. (2022)

assay: yeast display, Sf9 membrane polyspecificity reagent, FACS + sequencing; frameworks hold sequencing errors
In short: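 Using colony PCR, genes from sorted yeast display clones were amplified, then sequenced on MiSeq at 2 × 250 and filtered by CDR length. The clones had been stained with 10% biotinylated, detergent-solubilized Sf9 membrane reagent for 1 hour at 4 °C and sorted by FACS into low and high (top ~1%) gates on anti-HA and streptavidin fluorescence. Polyreactivity labels come from the gate of origin.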

Row | Sequence | polyreactivity (PSR sort gate)
1 | QVQLVESWGGLVQAGGSLRLSCAASGSTFYWYTMGWYRQAPGKERELVARISSSGSTNYADSVKGRFTISRDNAKNTVYLQMKSLKPEDTAVYYCKKDWIYRGYDYWGQGTQVTVSS | high polyreactivity
2 | QVQLVESWGGLVQAGGSLRLSCAASGYTIPDNAMGWYRQAPGKEREWVATITSGASTYYADSVKGRFTSSRDNAKNTVYLQMNSLNPEDTAVYYFARDPWALGGIGSDQKYDYWGQGTQVTVSS | low polyreactivity
3 | QVQLVESWRGLVQAGGSLRLSCAASGNTFVYNAMRWYRQAPGKERELVAGITKTGGRTYYADSVKGRFTISRDIAKNTVYLEMNSLKPEDTAVYYCAARPWNDGYYVGRFHMVYWGQGTQVTVSS | low polyreactivity
4 | QVQLVETAAGLVQAGGSLRLSCAASGSIYYSYAMGGYRQAPGKERELVAAITDSGDSTYYADSVKGRFTISRDNAKNTVYLQMNSLKPEDTAVYYCAAGFYPYYYWGLGTQVTVSS | low polyreactivity
5 | QVQLVETAGGLVQARGSLRLSCAASGFIFRYNAMGWYRQERGKERELVAAINYRGGSTYYADSVKGRFTISRDNAKNTVYLQMNSLKPEDTAVYYCAVLTYRGRFEYWGQGTQVTVSS | high polyreactivity
6 | QVQLVETAGRLVQAGGSLRLSSAASGFTFYIYAMGWSRHAPGKERQLVAAISGGGSTYYADSVKGRFTISRDNAKNTVYLQMNSLKPEVTAVYYCAVFPAAIYHRRGTYDYWGQGTQVTVSS | high polyreactivity
7 | QVQLVETGAGLVQAGGSLRLSCAPSGNTLGPYAKGWYRQGPGKERELVAAITWSGGITDYADSVKGRLTISRDNAKKTVYLQMNSLKPEDTAVYYCATKLTYTLTSGAYAYDYWGQGTQVTVSS | low polyreactivity
8 | QVQLVETGGGIVQAGGILRLSCAYSGSIFYLYAMGWYRQAPGKERELVAAISTSGGRTHYADSVKGRITISRDNAKNTVYLQMNSLKPEDTAVYYCAAPAARPDGGYGYWGQGTQVTVSS | high polyreactivity
9 | QVQLVETGGGIVQAGGSLRLSFAASGFTSDYNAMGWYRQAPGKERELVAAISYSGGSTYYADSVKGRFTISRDNAKNTVYLQMNSLKPEDTAVYYCANGRYGRRYYYWGQGTQVTVSS | high polyreactivity
10 | QVQLVETGGGIVQAGGSLRLSSAASGRIFASNAMGWYRQAPGKERELVAAIDQCGGSTYYADSVKGRFTISRDNAKNTVYLQMNSLKPEDTAVYYCAADYITAYPRLYNYWGQGTQVTVSS | low polyreactivity
11 | QVQLVETGGGLFQAGGSLRLSCAPCGSIFFSIAMGWYRQAPGKDRELVAAIDSGASSTYADSVKGRFTSSRDHAKNTVYLQINSLKPEDTAVYYFAADYPATGADGYDYWGQVTQVTVSS | low polyreactivity
12 | QVQLVETGGGLVQAGGSFRLSCAASGGIFRTYAKGWYRQAPGKERELVAAISRSGGSTYYADSVKGRFTISRDNAKNTVYLQMNSLKPEDTAVYYCAASRPYYPLYGYWGQGTQVTVSS | high polyreactivity
13 | QVQLVETGGGLVQAGGSHRLSCAASGSIFSSYVMGWYRQAPGKERELVDAISSGGRTYYADSVKGRFTISRDNAKNTVYLQMNSLKPDETAVYYCAARTRRYPRPGLSPGNYWGQGTQVTVSS | high polyreactivity
14 | QVQLVETGGGLVQAGGSLRISCAPSGSIFQRYAMGWYTQAPGKERELVAAITGSGGSTYYADSVMWRFTISRDNAKKTVYLQMNILKPEDSAVYYCAKRYPSRQYTLYNYWGLGTQVTVSS | high polyreactivity
15 | QVQLVETGGGLVQAGGSLRITCAASGSIFSYYDMGLNRQAPGNEREMVAAFSWDGGDRTYADSVKGRFTISRDIAKNTVYLQMNSLKPEDSAVYYCAKNTGSYRRVNLDYWGQGTQVTVSS | low polyreactivity
16 | QVQLVETGGGLVQAGGSLRLICAASGSIFQGNVMGWYRQAPGKERELVAAISSGGRTYYADSVKGRFTISRDNAKNTVYLQMNSLKPEDTAVYYCAASWLTSYAYIMYYWGQGTQVTVSS | high polyreactivity
17 | QVQLVETGGGLVQAGGSLRLRGAASGFTFPWYAMGWYRQAPGKERELVAAISTSGDSTYYADSVKGRFTISRDNAKNTVYLQMNSLKPEDTAVYYCAARVVRGRYGYWGQGTQVTVSS | high polyreactivity
18 | QVQLVETGGGLVQAGGSLRLSCAASFRSNTMGGYRQAPRKERELVAAISGSGSRTYYADSVKGRFTISRDNAKKTVYLQMNSLKPEDTAVYYCAALSYRNSEVGTSRGDYWGQGTQVTVSS | high polyreactivity
19 | QVQLVETGGGLVQAGGSLRLSCAASGFNLPIYAMRCYRQPPGKEREFVAAITWTGGSTYYADSVKGRFTISRDNAKNTVYLQMNSLKPEDTAVYYCNAEGPSYYYIIYDYWGQGTQVTVSS | high polyreactivity
20 | QVQLVETGGGLVQAGGSLRLSCAASGFTFTGNTMGWSRQAPGKERELVAAISQSGSRTYYADSVKGRFTISRDNAKNTVYLQMNSLKPEDTAVYYCNADYSSYWTSYDYWGQGTQVTVSS | high polyreactivity
21 | QVQLVETGGGLVQAGGSLRLSCAASGFTFYSYAMGWSRQSPRKEREFVAAGSTYYADSVKGRFTISRDYAKNTVYLQMNSLKPEDTAVYYCAADSYDVSRRYEYEYWVQGTQVTVSS | low polyreactivity
22 | QVQLVETGGGLVQAGGSLRLSCAASGGILVGYALGWYRQAPGKERELVAAINYSGGSTNYADSVKGRFTISRDNAKNTVYLQMNSLKPEDTAVYYCAARSTARYGYWGQGTQVTVSS | low polyreactivity
23 | QVQLVETGGGLVQAGGSLRLSCAASGIIFATYAMGWYRQAPGKEMELVAAISRRGGYTYYADSVKGRFTISRDNANNTVYLQMNSLKPEDSAVYYCAKSNTLASVAHDYWGQGTQVTVTS | high polyreactivity
24 | QVQLVETGGGLVQAGGSLRLSCAASGIIFPFYAMGWYRQAPGKERELVAAITSDGNTNYADSVKGRFTISRDNAKNTVYLQMNSLKPEDTAVYYCNAETQYGVLSWHSTRHDYWGQGTQVTVSS | low polyreactivity
25 | QVQLVETGGGLVQAGGSLRLSCAASGITFGRNTMGWYRQAPGKERELVAAIDSGANTYADSVKGRFTISRDNAKNTVYLQMNSLKPEDTAVYYCAVDGGEFSSYGYWGQATQVTVSS | low polyreactivity
26 | QVQLVETGGGLVQAGGSLRLSCAASGITFPYYAMGWYRQAPGKERELVDAITIRSGRTYYADSVKGRFTISRDNAKNTFYLQMNSLIPEDTAVYYCAARLSNTYGYWGQGTQVTVSS | high polyreactivity
27 | QVQLVETGGGLVQAGGSLRLSCAASGITFYEYALGWYRQAAGKERELVAAISTSGGNTYYAESVKGRFTISRDNAKTTVYLQMNSLKPEDTAVFYCAAQGTASSYSGGDYWGQGTQVTVSS | low polyreactivity
28 | QVQLVETGGGLVQAGGSLRLSCAASGNTFHPYAMGWYRQSPGKERELVAAITKSVGSTYYADSVKGRFTLSRDNAKNTVYLQMNSLKPEDTAVFYCARDSLQVFYPYASDDSWGQGTQVTVSS | low polyreactivity
29 | QVQLVETGGGLVQAGGSLRLSCAASGRIFGDNAMGWYRQAPGKEREFVATINGSGGSTYYADSVKGRFTISRDNAKNTVYLKMNRLKPEDTAVYYCFVQQNYGYDYWGQGTQVTVSS | low polyreactivity
30 | QVQLVETGGGLVQAGGSLRLSCAASGRIFGRYAMGWSRQAPGKERELVASISRGGSTNYADSVKGRFTISRDNAKNTVYLQMNSLKPEDTAVYYCAKSGGVGGADRVGSWGQGTQVTVSS | low polyreactivity
